The target of data set [1] is N-terminally truncated HPV-11 E1 (E1*, amino acids 72-649) (human papilloma virus type 11 (HPV-11)) (UniProt P04014). In words: cell-based or functional assay.
Data set [2] concerns the molecule itself. In words: BMH cross-linking of 35S-labelled protein, immunoprecipitation, gel electrophoresis (FIG. 10).
Data set [3] deals with the molecule itself. The data set is described as follows: BMH cross-linking with ss DNA (FIG. 12B).
Data set [4] deals with the molecule itself. In words: BMH cross-linking of in-vitro translated truncated proteins (FIG. 11).
Data set [5] has as its target T1, HPV-11 E1 (330-649) fused to the GAL4 DNA-binding domain (BD) (human papilloma virus type 11 (HPV-11)).
T1 construct: also called larger E1 fragment (330-649)
The data set is described as follows: yeast two-hybrid, β-galactosidase activity (FIG. 1B).

On to “thioredoxin fusion protein TRX-E1 (353-431) (from UniProt P04014 353-431)”, for which, in data set [1], the 50% inhibitory concentration for inhibition of the binding of E1* (72-649) to the origin is 3 µM.

B1: N-terminally truncated HPV-11 E1 (E1*, amino acids 72-649) (enzyme)
chain: ADAHYATVQDLKRKYLGSPYVSPISNVANAVESEISPRLDAIKLTTQPKKVKRRLFETRELTDSGYGYSEVEAATQVEKHGDPENGGDGEERDTGRDIEGEGVEHREAEAVDDSTREHADTSGILELLKCKDIRSTLHGKFKDCFGLSFVDLIRPFKSDRTTCADWVVAGFGIHHSIADAFQKLIEPLSLYAHIQWLTNAWGMVLLVLIRFKVNKSRCTVARTLGTLLNIPENHMLIEPPKIQSGVAALYWFRTGISNASTVIGEAPEWITRQTVIEHSLADSQFKLTEMVQWAYDNDICEESEIAFEYAQRGDFDSNARAFLNSNMQAKYVKDCAIMCRHYKHAEMKKMSIKQWIKYRGTKVDSVGNWKPIVQFLRHQNIEFIPFLSKLKLWLHGTPKKNCIAIVGPPDTGKSCFCMSLIKFLGGTVISYVNSCSHFWLQPLTDAKVALLDDATQPCWTYMDTYMRNLLDGNPMSIDRKHRALTLIKCPPLLVTSNIDISKEEKYKYLHSRVTTFTFPNPFPFDRNGNAVYELSDANWKCFFERLSSSLDIEDSEDEEDGSNSQAFRCVPGSVVRTL
notes: Made by coupled in vitro transcription/translation in rabbit reticulocyte lysate; 35S-labelled in the cross-linking assay; Forms up to hexamers; also called E1 (72-649); E1* (72-649)
With B1, the binding result in data set [2] is given as “binds”.

B2: E1* (72-649) F509A (enzyme)
chain: ADAHYATVQDLKRKYLGSPYVSPISNVANAVESEISPRLDAIKLTTQPKKVKRRLFETRELTDSGYGYSEVEAATQVEKHGDPENGGDGEERDTGRDIEGEGVEHREAEAVDDSTREHADTSGILELLKCKDIRSTLHGKFKDCFGLSFVDLIRPFKSDRTTCADWVVAGFGIHHSIADAFQKLIEPLSLYAHIQWLTNAWGMVLLVLIRFKVNKSRCTVARTLGTLLNIPENHMLIEPPKIQSGVAALYWFRTGISNASTVIGEAPEWITRQTVIEHSLADSQFKLTEMVQWAYDNDICEESEIAFEYAQRGDFDSNARAFLNSNMQAKYVKDCAIMCRHYKHAEMKKMSIKQWIKYRGTKVDSVGNWKPIVQFLRHQNIEFIPFLSKLKLWLHGTPKKNCIAIVGPPDTGKSCFCMSLIKFLGGTVISYVNSCSHAWLQPLTDAKVALLDDATQPCWTYMDTYMRNLLDGNPMSIDRKHRALTLIKCPPLLVTSNIDISKEEKYKYLHSRVTTFTFPNPFPFDRNGNAVYELSDANWKCFFERLSSSLDIEDSEDEEDGSNSQAFRCVPGSVVRTL
B2: in data set [3], the binding result is on record as “binds”.

B3: truncated HPV-11 E1 (353-649) made by in-vitro translation (enzyme)
chain: DSQFKLTEMVQWAYDNDICEESEIAFEYAQRGDFDSNARAFLNSNMQAKYVKDCAIMCRHYKHAEMKKMSIKQWIKYRGTKVDSVGNWKPIVQFLRHQNIEFIPFLSKLKLWLHGTPKKNCIAIVGPPDTGKSCFCMSLIKFLGGTVISYVNSCSHFWLQPLTDAKVALLDDATQPCWTYMDTYMRNLLDGNPMSIDRKHRALTLIKCPPLLVTSNIDISKEEKYKYLHSRVTTFTFPNPFPFDRNGNAVYELSDANWKCFFERLSSSLDIEDSEDEEDGSNSQAFRCVPGSVVRTL
notes: also called residues 353-649 of E1
As to B3, in data set [4], the binding result is recorded as “binds”.

B4: truncated HPV-11 E1 (330-649) made by in-vitro translation (enzyme)
chain: ASTVIGEAPEWITRQTVIEHSLADSQFKLTEMVQWAYDNDICEESEIAFEYAQRGDFDSNARAFLNSNMQAKYVKDCAIMCRHYKHAEMKKMSIKQWIKYRGTKVDSVGNWKPIVQFLRHQNIEFIPFLSKLKLWLHGTPKKNCIAIVGPPDTGKSCFCMSLIKFLGGTVISYVNSCSHFWLQPLTDAKVALLDDATQPCWTYMDTYMRNLLDGNPMSIDRKHRALTLIKCPPLLVTSNIDISKEEKYKYLHSRVTTFTFPNPFPFDRNGNAVYELSDANWKCFFERLSSSLDIEDSEDEEDGSNSQAFRCVPGSVVRTL
Regarding B4, the binding result in data set [4] is recorded as “binds”.

B5: C-terminal HPV-11 E1 fragment (amino acids 435-649) fused to the GAL4 activation domain (AD) (other)
chain: DSVGNWKPIVQFLRHQNIEFIPFLSKLKLWLHGTPKKNCIAIVGPPDTGKSCFCMSLIKFLGGTVISYVNSCSHFWLQPLTDAKVALLDDATQPCWTYMDTYMRNLLDGNPMSIDRKHRALTLIKCPPLLVTSNIDISKEEKYKYLHSRVTTFTFPNPFPFDRNGNAVYELSDANWKCFFERLSSSLDIEDSEDEEDGSNSQAFRCVPGSVVRTL
notes: also called E1 (435-649)
For B5, the binding result in data set [5] was “no binding”.

B6: truncated HPV-11 E1 (191-649) made by in-vitro translation (enzyme)
chain: DTSGILELLKCKDIRSTLHGKFKDCFGLSFVDLIRPFKSDRTTCADWVVAGFGIHHSIADAFQKLIEPLSLYAHIQWLTNAWGMVLLVLIRFKVNKSRCTVARTLGTLLNIPENHMLIEPPKIQSGVAALYWFRTGISNASTVIGEAPEWITRQTVIEHSLADSQFKLTEMVQWAYDNDICEESEIAFEYAQRGDFDSNARAFLNSNMQAKYVKDCAIMCRHYKHAEMKKMSIKQWIKYRGTKVDSVGNWKPIVQFLRHQNIEFIPFLSKLKLWLHGTPKKNCIAIVGPPDTGKSCFCMSLIKFLGGTVISYVNSCSHFWLQPLTDAKVALLDDATQPCWTYMDTYMRNLLDGNPMSIDRKHRALTLIKCPPLLVTSNIDISKEEKYKYLHSRVTTFTFPNPFPFDRNGNAVYELSDANWKCFFERLSSSLDIEDSEDEEDGSNSQAFRCVPGSVVRTL
notes: also called E1 protein comprised of amino acids 191-649
On to B6, for which the binding result in data set [4] is “binds”.
